By Kd is commonly meant the constant that tells how readily two partners part at equilibrium. One may read the IC50 as the point on the concentration scale where inhibition reaches its midpoint. Higher therefore signals weaker potency in that assay.

One test concerns the target HLA-A*02:17. Description: IEDB peptide-MHC binding, purified MHC/competitive/radioactivity; filed as Kd, often an IC50 or EC50 that approximates it; ≥ and ≤ were set here for values at or beyond the usual limits of such assays.
Test [1] concerns the target HLA-A*02:01. Described as above.
The target in a further test is HLA-A*02:06. The test is described as above.
The target of the next test is HLA-B*08:01. Described as above. The conditions noted are these: source organism: Dengue virus 3 Martinique/1243/1999.
Another test addresses HLA-A*24:02. Kind of test: IEDB peptide-MHC binding, purified MHC/competitive/fluorescence; ≥ and ≤ were set here for values at or beyond the usual limits of such assays. Conditions: source organism: Zaire ebolavirus.
The target in test [2] is HLA-A*02:01. The description is as above. Conditions: source organism: Zaire ebolavirus.
A further test has as its target HLA-A*11:01. The test is described as above.
The target of another test is HLA-B*48:01. Kind of test: IEDB peptide-MHC binding, purified MHC/direct/fluorescence; filed as Kd, often an IC50 or EC50 that approximates it; ≥ and ≤ were set here for values at or beyond the usual limits of such assays.
Test [3] deals with HLA-B*57:01. Description: IEDB peptide-MHC binding, purified MHC/competitive/radioactivity; filed as Kd, often an IC50 or EC50 that approximates it; ≥ and ≤ were set here for values at or beyond the usual limits of such assays.
Test [4] deals with HLA-B*58:01. The test is described as above.
In another test the target is HLA-A*32:01. The test is described as above. Conditions: source organism: Dengue virus 1 Brazil/97-11/1997.
Test [5] deals with HLA-B*57:01. Description: IEDB peptide-MHC binding, purified MHC/direct/fluorescence; filed as Kd, often an IC50 or EC50 that approximates it; ≥ and ≤ were set here for values at or beyond the usual limits of such assays. The conditions noted are these: source organism: Camelpox virus M-96.
The target in another test is HLA-B*15:17. The description is as above. The conditions noted are these: source organism: Camelpox virus M-96.
The target of test [6] is HLA-B*58:01. Described as above. Conditions: source organism: Camelpox virus M-96.
For a further test, the target named is HLA-A*68:01. Description: IEDB peptide-MHC binding, purified MHC/competitive/radioactivity; filed as Kd, often an IC50 or EC50 that approximates it; ≥ and ≤ were set here for values at or beyond the usual limits of such assays. Conditions: source organism: Dengue virus 3 Martinique/1243/1999.
A further test has as its target HLA-A*02:03. The description is as above.
Another test addresses HLA-A*02:11. Kind of test: IEDB peptide-MHC binding, purified MHC/direct/fluorescence; filed as Kd, often an IC50 or EC50 that approximates it; ≥ and ≤ were set here for values at or beyond the usual limits of such assays. Conditions: source organism: Hantaanvirus CGRn93P8.
Test [7] has as its target HLA-A*02:01. The test is described as above. Conditions: source organism: Orthohantavirus hantanense.
For the next test, the target named is HLA-A*02:19. The description is as above. Conditions: source organism: Hantaanvirus CGRn93P8.
For a further test, the target named is HLA-A*02:12. The description is as above. Conditions: source organism: Hantaanvirus CGRn93P8.
The next test deals with HLA-A*01:01. Description: IEDB peptide-MHC binding, purified MHC/competitive/radioactivity; filed as Kd, often an IC50 or EC50 that approximates it; ≥ and ≤ were set here for values at or beyond the usual limits of such assays. Conditions: source organism: Dengue virus 2 Jamaica/1409/1983.
For a further test, the target named is HLA-A*30:02. The test is described as above. Conditions: source organism: Dengue virus 2 Jamaica/1409/1983.
[8] abbreviates: source organism: Dengue virus 3 China/80-2/1980.
[9] abbreviates: source organism: Dengue virus 3 Martinique/1243/1999.
Where [10] appears, read: source organism: Vaccinia virus.
Setting [11] is: source organism: Dengue virus 1 Brazil/97-11/1997.
The mark [12] stands for this setting: source organism: Dengue virus 2 Jamaica/1409/1983.
Setting [13] is: source organism: Dengue virus 4 Philippines/H241/1956.
Where [14] appears, read: source organism: Pan troglodytes.
Where [15] appears, read: source organism: Dengue virus 1 Singapore/S275/1990.
[16] abbreviates: source organism: Dengue virus 3 Singapore/8120/1995.
Setting [17] is: source organism: Dengue virus 2 Thailand/NGS-C/1944.

Regarding LLLMRTSWAL, the Kd with HLA-A*02:17 (setting [8]) was determined as 15.3 nM; with HLA-A*02:01 [1] (setting [8]), 5.52 nM; in the test with HLA-A*02:06 (setting [9]), 13.3 nM; with HLA-B*08:01 it was 1.47 nM.
As for SSGYYSTTI, the half-inhibitory concentration (IC50) with HLA-A*24:02 stood at 2140 nM; in the test with HLA-A*02:01 [2], 65200 nM; with HLA-A*11:01 (source organism: Zaire ebolavirus), 33800 nM.
Turning to GQWGGDWAV, the dissociation constant (Kd) with HLA-B*48:01 (source organism: Brucella abortus 2308) worked out at 61.4 nM.
NVTTQSIHE gave an IC50 with HLA-A*11:01 (setting [10]) of no less than 148000 nM.
With KQIQKVETW, the Kd in the test with HLA-B*57:01 [3] (setting [11]) was 460 nM; with HLA-B*58:01 [4] (setting [11]), 4.77 nM; with HLA-A*32:01, 49.5 nM.
Regarding ISGSNIVIF, the dissociation constant Kd with HLA-B*57:01 [5] was no less than 20000 nM; in the test with HLA-B*15:17, 155 nM; in the test with HLA-B*58:01 [6] it was 904 nM.
As to KGVEYNIDK, in the test with HLA-A*11:01 (setting [10]), the concentration for half-maximal inhibition (IC50) turned out to be 31600 nM.
For the sequence FASALTALND, the values for the Kd with HLA-B*57:01 [3] (setting [12]) and with HLA-B*58:01 [4] (setting [12]) were 636 nM and 1570 nM, respectively.
The corresponding values for ATGPISTLW are 1.42 nM and 1.49 nM.
On to IILEFFLMV, for which the dissociation constant (Kd) came to 182 nM with HLA-A*02:17 (setting [13]) and 1.78 nM with HLA-A*02:06 (setting [11]).
The sequence RRDKRSVAL yielded a Kd with HLA-B*48:01 (source organism: Dengue virus) of 153 nM.
Sequence KPYMAMSAL gave a Kd with HLA-B*48:01 (source organism: Salmonella enterica subsp. enterica serovar Typhimurium) of 541 nM.
With GTSGSPIVDR, the Kd with HLA-B*57:01 [3] (setting [12]) amounted to 2340 nM.
On to KQLGQVMLLV, for which the Kd in the test with HLA-A*02:17 (setting [13]) is 172 nM; in the test with HLA-A*02:01 [1] (setting [13]), 20.2 nM; with HLA-A*02:06 (setting [9]), 5.78 nM.
Turning to YRAVVPLVY, the figures for the Kd in the test with HLA-B*57:01 [3] (setting [14]) and in the test with HLA-B*58:01 [4] (setting [14]) were 12600 nM and 1500 nM, respectively.
For VIASSGMLW, in the test with HLA-B*58:01 [4] (setting [9]), the equilibrium dissociation constant (Kd) was found to be 56 nM.
On to FMNEDHWFS, for which the Kd with HLA-A*02:17 (setting [15]) came to 244 nM; with HLA-A*02:01 [1] (setting [15]), 9.76 nM; with HLA-A*02:06 (setting [11]), 270 nM.
GTSGSPIINR: the values for the Kd with HLA-A*68:01 and in the test with HLA-B*57:01 [3] (setting [9]) were 13.8 nM and 4000 nM, respectively.
With TLTAAVLLLV, the figures for the Kd in the test with HLA-A*02:17 (setting [16]) and with HLA-A*02:03 (setting [16]) were 219 nM and 5.74 nM, respectively.
As for TLMAMDLGEL, the Kd in the test with HLA-A*02:17 (setting [17]) was 273 nM; with HLA-A*02:01 [1] (setting [17]), 14.5 nM; in the test with HLA-A*02:03 (source organism: Dengue virus 2 Peru/IQT2913/1996), 8.36 nM.
Take TLAQSLIDV: the Kd with HLA-A*02:11 is 2 nM; with HLA-A*02:01 [7], no more than 1 nM; in the test with HLA-A*02:19, 6 nM; in the test with HLA-A*02:12, 4 nM.
As for LLLTIGLSLV, the dissociation constant Kd stood at 2620 nM in the test with HLA-A*02:17 (setting [15]), 3.91 nM in the test with HLA-A*02:01 [1] (setting [15]), 62 nM in the test with HLA-A*02:06 (setting [11]) and 14.6 nM in the test with HLA-A*02:03 (setting [11]).
Turning to VASEMAEALK, the dissociation constant Kd with HLA-B*58:01 [4] (setting [11]) was no less than 10000 nM.
As to SLSMTCIAV, the Kd was determined as 49.1 nM with HLA-A*02:17 (setting [15]), 13.4 nM with HLA-A*02:01 [1] (setting [15]) and 124 nM with HLA-A*02:03 (setting [11]).
In the case of RSLIGNEEY, the results for the dissociation constant (Kd) with HLA-A*01:01, with HLA-A*30:02 and with HLA-B*58:01 [4] (setting [12]) were 6720 nM, no less than 30100 nM and 27.2 nM, respectively.

Values taken from the Immune Epitope Database (IEDB).
